For assay [1], the target named is Type I collagen (Nitta Gelatin Inc., type I-A: porcine origin) (porcine). Kind of assay: solid-phase binding assay on coated type I collagen, detection with anti-FLAG antibody M2.
Assay [2] shares this target. Kind of assay: solid-phase binding assay on coated type I collagen, detection with anti-laminin α5 antibody 5D6.
The target in assay [3] is Gelatin (Sigma, G1890-100G: porcine origin) (porcine). Kind of assay: solid-phase binding assay on coated gelatin, detection with anti-laminin α5 antibody 5D6.

In the case of “CBD-fused laminin 321E8 fragment 321βγ (from UniProt Q16787 579-1364)”, the fold binding activity against the form with a single CBD (321β) in assay [1] is more than 10 fold.

“CBD-fused laminin 411E8 fragment 411βγ (from UniProt Q16363 629-1449)” gave a fold binding activity against the form with a single CBD (411β) in assay [1] of more than 10 fold.

The substance “CBD-fused laminin 521E8 fragment 521βγ (from UniProt O15230 2534-3327)” had a fold binding activity against the form with a single CBD (521β) in assay [1] of more than 10 fold.

Substance “CBD-fused laminin 221E8 fragment 221βγ (from UniProt P24043 1900-2722)” returned a fold binding activity against the form with a single CBD (221β) in assay [1] of more than 10 fold.

“CBD-fused laminin 111E8 fragment 111βγ (from UniProt P25391 1878-2700)”: the fold binding activity against the form with a single CBD (111β) in assay [1] is more than 10 fold.

The substance “CBD-fused laminin 211E8 fragment 211βγ (from UniProt P24043 1900-2722)” displayed a fold binding activity against the form with a single CBD (211β) in assay [1] of more than 10 fold.

Take “CBD-fused laminin 421E8 fragment 421βγ (from UniProt Q16363 629-1449)”: in assay [1], the fold binding activity against the form with a single CBD (421β) was more than 10 fold.

On to “CBD-fused laminin 311E8 fragment 311βγ (from UniProt Q16787 579-1364)”, for which, in assay [1], the fold binding activity against the form with a single CBD (311β) is more than 10 fold.

Consider “CBD-fused laminin 511E8 fragment CBD-E8(βγ) (from UniProt O15230 2534-3327)”, for which, in assay [2], the concentration at which the binding activity reached saturation is 10 nM and the fold binding activity against the forms with a single CBD (monovalent forms) is 10 fold. The substance further returned a fold binding activity against the monovalent forms in assay [3] of 3 fold.

In assay [2], “CBD-fused laminin 511E8 fragment CBD-E8(αβγ)” displayed a concentration at which the binding activity reached saturation of 10 nM and a fold binding activity against the forms with a single CBD (monovalent forms) of 10 fold. In assay [3], this substance gave a fold binding activity against the monovalent forms of 3 fold.

In assay [1], “CBD-fused laminin 121E8 fragment 121βγ (from UniProt P25391 1878-2700)” had a fold binding activity against the form with a single CBD (121β) of more than 10 fold.

Source of the values: patent US20160052994A1.
